Reference: patent US20250304643A1 (BAINAN BIOTECH, published 2025)
*1 amine or outer side, *2 acyl side, *3 side chain or, on linkers, in order; H or OH if unused. Where no end group is shown, it is not given here. Side-chain parts run from the residue outwards. [ ]: non-standard residue; d: D form. The star is where a group is joined. C16 diacid = O=C(O)CCCCCCCCCCCCCCC(=O)*; γGlu = O=C(O)[C@H](CCC(=O)[*:2])N[*:1]; Palmitoyl = CCCCCCCCCCCCCCCC(=O)*; Decanoyl = CCCCCCCCCC(=O)*; Aib = CC(C)(N)C(=O)O

T1: human glucose-dependent insulinotropic polypeptide receptor (human, UniProt P48546 22-466)
T1 sequence (looked up): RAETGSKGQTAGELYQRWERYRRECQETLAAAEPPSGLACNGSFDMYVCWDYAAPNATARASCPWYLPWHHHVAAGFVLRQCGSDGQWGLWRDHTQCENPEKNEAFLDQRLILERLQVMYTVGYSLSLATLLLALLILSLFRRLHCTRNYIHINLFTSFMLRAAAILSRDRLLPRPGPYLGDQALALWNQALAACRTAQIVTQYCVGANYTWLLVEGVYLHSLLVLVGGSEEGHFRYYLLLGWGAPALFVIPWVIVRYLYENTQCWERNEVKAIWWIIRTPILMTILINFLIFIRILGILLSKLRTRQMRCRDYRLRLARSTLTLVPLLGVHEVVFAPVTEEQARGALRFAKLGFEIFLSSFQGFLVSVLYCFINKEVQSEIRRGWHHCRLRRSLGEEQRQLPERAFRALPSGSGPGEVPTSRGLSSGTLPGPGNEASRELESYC

T2: human glucagon-like peptide-2 receptor (human, UniProt O95838 1-553)
T2 sequence (looked up): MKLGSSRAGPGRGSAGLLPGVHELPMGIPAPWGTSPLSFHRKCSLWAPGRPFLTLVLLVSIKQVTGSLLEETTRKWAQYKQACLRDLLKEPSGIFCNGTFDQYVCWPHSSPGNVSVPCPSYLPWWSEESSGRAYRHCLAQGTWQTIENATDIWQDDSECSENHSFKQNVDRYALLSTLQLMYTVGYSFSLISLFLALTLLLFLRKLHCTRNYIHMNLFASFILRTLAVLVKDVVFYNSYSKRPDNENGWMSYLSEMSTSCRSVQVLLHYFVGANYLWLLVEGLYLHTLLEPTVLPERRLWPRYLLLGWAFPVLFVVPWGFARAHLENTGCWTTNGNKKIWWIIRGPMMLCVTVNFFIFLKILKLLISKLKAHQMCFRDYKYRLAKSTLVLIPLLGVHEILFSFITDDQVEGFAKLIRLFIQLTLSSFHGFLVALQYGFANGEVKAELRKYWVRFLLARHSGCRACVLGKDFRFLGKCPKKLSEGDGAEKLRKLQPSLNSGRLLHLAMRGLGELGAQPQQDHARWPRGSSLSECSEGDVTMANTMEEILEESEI

B1: Compound no. 33 (peptide)
peptide: H[Aib]DGTFISDYK([γGlu-Palmitoyl])T[Aib]LDALAARDFIEWLIQTKITK-OH
modifications: N-terminus assumed
SMILES: CCCCCCCCCCCCCCCC(=O)N[C@@H](CCC(=O)NCCCC[C@H](NC(=O)[C@H](Cc1ccc(O)cc1)NC(=O)[C@H](CC(=O)O)NC(=O)[C@H](CO)NC(=O)[C@@H](NC(=O)[C@H](Cc1ccccc1)NC(=O)[C@@H](NC(=O)CNC(=O)[C@H](CC(=O)O)NC(=O)C(C)(C)NC(=O)[C@@H](N)Cc1c[nH]cn1)[C@@H](C)O)[C@@H](C)CC)C(=O)N[C@H](C(=O)NC(C)(C)C(=O)N[C@@H](CC(C)C)C(=O)N[C@@H](CC(=O)O)C(=O)N[C@@H](C)C(=O)N[C@@H](CC(C)C)C(=O)N[C@@H](C)C(=O)N[C@@H](C)C(=O)N[C@@H](CCCNC(=N)N)C(=O)N[C@@H](CC(=O)O)C(=O)N[C@@H](Cc1ccccc1)C(=O)N[C@H](C(=O)N[C@@H](CCC(=O)O)C(=O)N[C@@H](Cc1c[nH]c2ccccc12)C(=O)N[C@@H](CC(C)C)C(=O)N[C@H](C(=O)N[C@@H](CCC(N)=O)C(=O)N[C@H](C(=O)N[C@@H](CCCCN)C(=O)N[C@H](C(=O)N[C@H](C(=O)N[C@@H](CCCCN)C(=O)O)[C@@H](C)O)[C@@H](C)CC)[C@@H](C)O)[C@@H](C)CC)[C@@H](C)CC)[C@@H](C)O)C(=O)O
B2: Compound no. 5 (peptide)
peptide: Palmitoyl-H[Aib]DGTFISDYST[Aib]LDNLAARDFINWLIQTKITK-OH
SMILES: CCCCCCCCCCCCCCCC(=O)N[C@@H](Cc1c[nH]cn1)C(=O)NC(C)(C)C(=O)N[C@@H](CC(=O)O)C(=O)NCC(=O)N[C@H](C(=O)N[C@@H](Cc1ccccc1)C(=O)N[C@H](C(=O)N[C@@H](CO)C(=O)N[C@@H](CC(=O)O)C(=O)N[C@@H](Cc1ccc(O)cc1)C(=O)N[C@@H](CO)C(=O)N[C@H](C(=O)NC(C)(C)C(=O)N[C@@H](CC(C)C)C(=O)N[C@@H](CC(=O)O)C(=O)N[C@@H](CC(N)=O)C(=O)N[C@@H](CC(C)C)C(=O)N[C@@H](C)C(=O)N[C@@H](C)C(=O)N[C@@H](CCCNC(=N)N)C(=O)N[C@@H](CC(=O)O)C(=O)N[C@@H](Cc1ccccc1)C(=O)N[C@H](C(=O)N[C@@H](CC(N)=O)C(=O)N[C@@H](Cc1c[nH]c2ccccc12)C(=O)N[C@@H](CC(C)C)C(=O)N[C@H](C(=O)N[C@@H](CCC(N)=O)C(=O)N[C@H](C(=O)N[C@@H](CCCCN)C(=O)N[C@H](C(=O)N[C@H](C(=O)N[C@@H](CCCCN)C(=O)O)[C@@H](C)O)[C@@H](C)CC)[C@@H](C)O)[C@@H](C)CC)[C@@H](C)CC)[C@@H](C)O)[C@@H](C)CC)[C@@H](C)O
B3: Compound no. 34 (peptide)
peptide: Ac-H[Aib]DGTFISDYK([γGlu-Palmitoyl])T[Aib]LDNLAARDFINWLIQTKITK-OH
SMILES: CCCCCCCCCCCCCCCC(=O)N[C@@H](CCC(=O)NCCCC[C@H](NC(=O)[C@H](Cc1ccc(O)cc1)NC(=O)[C@H](CC(=O)O)NC(=O)[C@H](CO)NC(=O)[C@@H](NC(=O)[C@H](Cc1ccccc1)NC(=O)[C@@H](NC(=O)CNC(=O)[C@H](CC(=O)O)NC(=O)C(C)(C)NC(=O)[C@H](Cc1c[nH]cn1)NC(C)=O)[C@@H](C)O)[C@@H](C)CC)C(=O)N[C@H](C(=O)NC(C)(C)C(=O)N[C@@H](CC(C)C)C(=O)N[C@@H](CC(=O)O)C(=O)N[C@@H](CC(N)=O)C(=O)N[C@@H](CC(C)C)C(=O)N[C@@H](C)C(=O)N[C@@H](C)C(=O)N[C@@H](CCCNC(=N)N)C(=O)N[C@@H](CC(=O)O)C(=O)N[C@@H](Cc1ccccc1)C(=O)N[C@H](C(=O)N[C@@H](CC(N)=O)C(=O)N[C@@H](Cc1c[nH]c2ccccc12)C(=O)N[C@@H](CC(C)C)C(=O)N[C@H](C(=O)N[C@@H](CCC(N)=O)C(=O)N[C@H](C(=O)N[C@@H](CCCCN)C(=O)N[C@H](C(=O)N[C@H](C(=O)N[C@@H](CCCCN)C(=O)O)[C@@H](C)O)[C@@H](C)CC)[C@@H](C)O)[C@@H](C)CC)[C@@H](C)CC)[C@@H](C)O)C(=O)O
B4: Compound no. 44 (peptide)
peptide: Decanoyl-H[Aib]DGTFISDYST[Aib]LDNLAARDFINWLIQTKITK-OH
SMILES: CCCCCCCCCC(=O)N[C@@H](Cc1c[nH]cn1)C(=O)NC(C)(C)C(=O)N[C@@H](CC(=O)O)C(=O)NCC(=O)N[C@H](C(=O)N[C@@H](Cc1ccccc1)C(=O)N[C@H](C(=O)N[C@@H](CO)C(=O)N[C@@H](CC(=O)O)C(=O)N[C@@H](Cc1ccc(O)cc1)C(=O)N[C@@H](CO)C(=O)N[C@H](C(=O)NC(C)(C)C(=O)N[C@@H](CC(C)C)C(=O)N[C@@H](CC(=O)O)C(=O)N[C@@H](CC(N)=O)C(=O)N[C@@H](CC(C)C)C(=O)N[C@@H](C)C(=O)N[C@@H](C)C(=O)N[C@@H](CCCNC(=N)N)C(=O)N[C@@H](CC(=O)O)C(=O)N[C@@H](Cc1ccccc1)C(=O)N[C@H](C(=O)N[C@@H](CC(N)=O)C(=O)N[C@@H](Cc1c[nH]c2ccccc12)C(=O)N[C@@H](CC(C)C)C(=O)N[C@H](C(=O)N[C@@H](CCC(N)=O)C(=O)N[C@H](C(=O)N[C@@H](CCCCN)C(=O)N[C@H](C(=O)N[C@H](C(=O)N[C@@H](CCCCN)C(=O)O)[C@@H](C)O)[C@@H](C)CC)[C@@H](C)O)[C@@H](C)CC)[C@@H](C)CC)[C@@H](C)O)[C@@H](C)CC)[C@@H](C)O
B5: Compound no. 6 (peptide)
peptide: Palmitoyl-H[Aib]DGTFISDYSTILD[Aib]LAARDFINWLIQTKITK-OH
SMILES: CCCCCCCCCCCCCCCC(=O)N[C@@H](Cc1c[nH]cn1)C(=O)NC(C)(C)C(=O)N[C@@H](CC(=O)O)C(=O)NCC(=O)N[C@H](C(=O)N[C@@H](Cc1ccccc1)C(=O)N[C@H](C(=O)N[C@@H](CO)C(=O)N[C@@H](CC(=O)O)C(=O)N[C@@H](Cc1ccc(O)cc1)C(=O)N[C@@H](CO)C(=O)N[C@H](C(=O)N[C@H](C(=O)N[C@@H](CC(C)C)C(=O)N[C@@H](CC(=O)O)C(=O)NC(C)(C)C(=O)N[C@@H](CC(C)C)C(=O)N[C@@H](C)C(=O)N[C@@H](C)C(=O)N[C@@H](CCCNC(=N)N)C(=O)N[C@@H](CC(=O)O)C(=O)N[C@@H](Cc1ccccc1)C(=O)N[C@H](C(=O)N[C@@H](CC(N)=O)C(=O)N[C@@H](Cc1c[nH]c2ccccc12)C(=O)N[C@@H](CC(C)C)C(=O)N[C@H](C(=O)N[C@@H](CCC(N)=O)C(=O)N[C@H](C(=O)N[C@@H](CCCCN)C(=O)N[C@H](C(=O)N[C@H](C(=O)N[C@@H](CCCCN)C(=O)O)[C@@H](C)O)[C@@H](C)CC)[C@@H](C)O)[C@@H](C)CC)[C@@H](C)CC)[C@@H](C)CC)[C@@H](C)O)[C@@H](C)CC)[C@@H](C)O

Experiments:
Experiment in all cases: cell-based or functional assay
[1] = target: T1, human glucose-dependent insulinotropic …
[2] = target: T2, human glucagon-like peptide-2 receptor
[3] = target: human GLP-1R (GLP-1 receptor) (human, UniProt P43220 24-463)

Row | Binder | Efficacy GIPR [1] | Efficacy GLP-2R [2] | also measured
1 | B1 | 101% | 97% | 
2 | {C16 diacid}-H[Aib]EGTFISDYST[Aib]LDALAARDFINWLIQTKITKNDWKHNITQ-OH [Compound no. 41] | 91% | 74% | logEC50 GLP-2R [2]: 8.8
3 | B2 |  |  | cAMP assay: Efficacy GLP-1R [3]: 6%
4 | B3 | 75% | 103% | EC50 (nM) GIPR [1]: 10 nM
5 | Palmitoyl-HADGTFISDYSTILDNLAARDFINWLLAQKITK [Compound no. 46] | 98% | 82% | 
6 | Ac-H[Aib]DGTFISDYK([γGlu-Palmitoyl])T[Aib]LDNLAARDFINWLIQTKITKNDWKHNITQ-OH [Compound no. 38] | 81% | 89% | 
7 | B4 | 110% | 100% | 
8 | {C16 diacid}-H[Aib]DGTFISDYST[Aib]LDNLAAKDFINWLIQTKITKNDWKHNITQ-OH [Compound no. 42] | 91% | 93% | 
9 | Palmitoyl-HADGTFISDYSTILDNLAARDFINWLIQTKIT [Compound no. 2] | 80% | 59% | 
10 | {C16 diacid}-H[Aib]DGTFISDYST[Aib]LDNLAARDFINWLIQTKITKNDWKHNITQ-OH [Compound no. 40] | 94% | 96% | EC50 (nM) GIPR [1]: 1 nM; logEC50 GLP-2R [2]: 9
11 | {C16 diacid}-HADGTFISDYST[Aib]LDNLAARDFINWLIQTKITKNDWKHNITQ [Compound no. 39] | 99% | 78% | EC50 (nM) GLP-2R [2]: 1 nM; logEC50 GLP-2R [2]: 9
12 | B5 |  |  | cAMP assay: EC50 (nM) GLP-1R [3]: 39.8 nM; cAMP assay: Efficacy GLP-1R [3]: 34%; cAMP assay: logEC50 GLP-1R [3]: 7.4
